In the RNAGym collection of RNA variant scans (doi:10.1073/pnas.2313332121):

B1: TPR t1 (parent)
chain: GACCAAUCUGCCCUCAGAGCUCGAGAACAUCUUCGGAUGCAGAGGAGGCAGGCUUCGGUGGCGCGAUAGCGCCAACGUCCUCAACCUCCAAUGCAUCCCACCACAUGAUGAUGCCUGAAGAGCCUUGGUUUUUUG

Variants of: B1
Test: polymerase ribozyme fitness, log enrichment relative to wild type (log ratio); higher = more active; in vitro selection for triplet polymerase activity
Method in brief: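 Fitness measures genotype enrichment against wild-type enrichment on a logarithmic scale, with inverse-variance-weighted averaging of replicates. The logarithm is base 2, and genotypes were kept only with ≥10 input reads and ≥1 read per output in Illumina sequencing. The sequenced libraries came from one triplicate in vitro selection round, including frozen incubation at −7 °C, of PCR-built, transcribed mutant libraries of each subunit of a heterodimeric triplet polymerase ribozyme.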

Variant	polymerase ribozyme fitness (log ratio)
GAACAAUCUGCCCUCAGAGCUCGAGAACAUCUUCGGUUGCAGAGGAGGCAGGCUUCGGUGGCGCGAUAGCGCCAACGUCCUCAACCUCCAAUGCAUCCCACCACAUGAUGAUGUCUGAAGAGCCUUGGUUUUUUG [C3A A37U C114U]	-3.95
GAACAAUCUGCCCUCAGAGGUCGAGAACAUCUUCGGAUGCAGAGGAGGCAGGCUUCGGUGGCGCGAUAGCGCCAACGUCCUCAACCUCCAAUGCAUCCCACCACAUGAUGAUGCCUGAUGUGCCUUGGUUUCUUG [C3A C20G A119U A121U U132C]	-3.91
GUCCAAUCUGCCCUCAGAGCUCGAGAACAUCUUCGGAAGCAGAGGAGGCAGGCUUCGGUGGCACGAUAGCGCCAACGUCCUCAACCUUCAAUGCAUCCCACCACAUGAUGAUGCCUGAAGAGCCUUGGUUUUUUG [A2U U38A G63A C88U]	-4.16
GAACAAUCUGCCCUCAGAGCUCGAGAACAUCUUCGGAUGCAGAGGAGGCAGGCUUCGGUGGCGCGAUAGCGCCAACGUCCUCAGCCUCCAAUGCAUCCCACCACAUGAUGAUGCCUGAAGAGCCUUGGUUUUUUG [C3A A84G]	-2.2
GAACAAUAUGGCCUCAGAGCUAGAGAACAUCUUCGGAUGCAGAGUAGGCAGGCUUCGGUGGCGCGAUAGCGCCAACGUCCUCAACCUGCAAUGCAUCCCACCACAUGAUGAUGCCUGAAGAGCCUUGGUUUUUUG [C3A C8A C11G C22A G45U C88G]	-5.16
GAACAAUCUGCCCUCAGAGCUCGAGAACUUCUUCGGAUGCAGAGGAGGCAGGCUUCGGUGGCACGAUAGCGCCAACGUCCUAAACCUCCACUGCAUCCCACCACAUGAUGAUGUCUGAAGAGCCUUGUUUUUUUG [C3A A29U G63A C82A A91C C114U G128U]	-3.24
GAACAAUCUGCCCUCAGAGCUCGAGAACAUCUUCGGAUGAAGAGGAGGCAGGCUUCGGUGGCGCGAUAGCGCCAACGUCCUCAACCUCCACUGCAUCCCACCACAUGAUGAUGCCUCAUGAGCCUUGGUUUUUUG [C3A C40A A91C G117C A119U]	-5.83
GAACACUCUGCCCUCAGAGCUCGAGAACAUCUUCGGAUGCAGAGGAGGCAGGCUUCGGUGGCGCGAUAGCGCCAACGUCCUCAACCUCCAUUGCAUCCCACCACAUGAUGAUGCCUGAAGAGCCAUGGUUUUUUG [C3A A6C A91U U125A]	-3.02
GUCCAAUCUGCCCUCAGAGCUCGAGAACAUCUUCGGAUGCAGAGGAGGCAGGCUUCGGUGGCGCGAUAGCGCCAACGUCCUCAACCGCCAAUGCAUCCCACCACAUGAUGAUGCCUGAAGAGCCUUGGUUUUUUG [A2U U87G]	-2.24
GAACAAUCUGCCCUCAGAGCUCGAGAACAUCUUCGGAUGCAGAGGAGGGAGGCUUCGGUGGCGCGAUAGCGCCAUCGUCCUCAACCUCCAAUGCAUCCCACCACAUGAUGAUGCCUGAAGAGCCAUGGUUUUUUG [C3A C49G A75U U125A]	-2.69
GAACAAUCUGCCGUCAGAGCUCGAGAAAAUCUUCGGAUGCAGAGGAGGCAUGCUUCGGUGGCGCGAUAGCCCCAACGUCCUCAACCUCCAAUGCAUCCCACCACAUGAUUAUGCCUGAAGAGCCUUGGUUUUUUG [C3A C13G C28A G51U G71C G110U]	-6.35
GAACACUCUGCCCUCAGAGCUCGAGAACAUCUUCGGAUGCAGAGGGGGGAGGCUUCGGUGGCGCGAUACCGCCAACGUCCUCAACCUCCAAUGCAUCCCACCAUAUGAUGAUGCCUGAAGAGCCUUGGUUUUUUG [C3A A6C A46G C49G G69C C104U]	-3.86
GAACAAUCUGCCCUCAGAGCUCGAGAACAUCUUCGGAUGCAGAGGAGGCAGGCUUCGGUGGCGCGAUAGCGCCUACGUCCUCAACCUCCAAUGCAUCCCACCACAUGAUGAUGCCUGAAUAGCCAUGGUUUUUUG [C3A A74U G120U U125A]	-0.657
GAACAAUCUGCCCUCAGAGCUCGAGAACAUCUUUGGAUGCAGAGGAGGCAGGAUUCGGUGGCGCGAUAGCGCCAACGUCCUCAACCUCAAAUGCAUCCCACCACAUGAUGAUGCCUGAAGAGGCUUGGUUUUUUG [C3A C34U C53A C89A C123G]	-5.9
GAACAAUAUGCCCUCAGAGCUCGAGAACAUCUUCGGAUGCAGAGGAGGCAGGCUUCGGUGGAGCGAUAGCGCCAACGUCCUCAACCUCCAAUGCAUUCCACCACAUGAUGAUGCCUGAAGAGCCUUGGUUUUUUG [C3A C8A C62A C97U]	-2.46
GAACAAUAUGCCCUCAGAGCUCGAGAACAUCUUCGGAUGCAGAGGAGGCAGGGUUCGGUGGCGCGAUAGCGCCAACGUCCUCAACCUCCAAUGCAUCCCAACACAUGAUGAUGCCUGAAGAGCCUUGGUUUUUUG [C3A C8A C53G C101A]	-1.64
GAACAAUCUGCACUCAGAGCUCGAGAACAUCUUCGGAUGCAGAGGAGGCAGGCUUCGGUGGCGCGAUAGCGCCAACGUCCUCAACCUCCAAUGCAUCCCACCACAUGAUGAUGCCUGAAGAGCCUUGGUUUUUUG [C3A C12A]	-1.53
GAACAAUCUGCCCUCAGAGCUCGAGAACAUCUUCGGAUGCAGUGGAGGCAGGCUUCGGUGGCGCGAUAGCGCCAACGUCCUCAACCUCCAAUGCAUCCCACCACAUGAUGAUGCCUGAAGAGCCUUGGUUUUUUG [C3A A43U]	-2.69
GAACAAUCUGCUCUCAGAGCUCGAGAACAUCUUCGGAUGCAAACGAGGCAGGCUUCGGUGGCGCGAUAGCGCCAACGUUCUCAACCUACAAUGCAUCCCACCACAUGAUGAUGCCUGGAAAGCCUUGGUUUUUUG [C3A C12U G42A G44C C79U C88A A118G G120A]	-1.44
GAAAAAUCUGCCCUCAGAGCUCGAGAACAUCUUCGGAUGCAGAGGAGGCAAGCUUCGGUAGCGCGAUAGCGCCAACGUCCUCAGCCUCCAAUGCAUCCCACCACAUGAUGAUGCCUGAAUAGCCUUGGUUUUUUG [C3A C4A G51A G60A A84G G120U]	-3.02
GUCCAAUCUGCCCUCAGAGCUCGAGAACAUCCUCGGAUGCAGAGGAGGCAGGCUUCGGUGGAGCGAUAGCGCCAACGUCCUCAACCUCCAAUGCAUCCCACCACAUGAUGAUGCCUGAAGAGCCUUGGUUUUUUG [A2U U32C C62A]	-4.44
